Assay results as given in patent US11634477 (dated 2023).

Experiments:
SARS-CoV-2 RBD = SARS-CoV-2 RBD (SARS-CoV-2, UniProt P0DTC2); assay: ELISA
SARS-CoV RBD = SARS-CoV RBD (SARS-CoV, UniProt P59594); assay: ELISA

B1: C113 (antibody, V domains shown)
VH: QVQLVESGGGVVQPGRSLRLSCAASGFTFSNFGMHWVRQAPGKGLEWVAVIWYDGSNKYYADSVKGRFTISRDNSKNTLYLQMNSLRAEDTAVYYCARGVNPDDILTGVDAFDIWGQGTMVTVSS
VL: DIQMTQSPSTLSASVGDRVTITCRASQSMSSWLAWYQQKPGNAPKLLIYKASSLESGVPSRFSGSGSGTEFTLTISSLQPDDFATYYCQQHNSSPLTFGGGTKVEIK
EC50 (SARS-CoV-2 RBD): 6.93 ng/mL | EC50 (SARS-CoV RBD): > 1000 ng/mL

B2: C124 (antibody, V domains shown)
VH: EVQLVESGGGLVQPGGSLRLSCAASGFTFSGYSMNWVRQAPGKGPEWVSYISRSSSTIYYADSVKGRFTISRDNAKNSLYLQMNSLRDEDTAVYYCAREGARVGATYDTYYFDYWGQGTLVTVSS
VL: EIVLTQSPATLSLSPGERATLSCRASQSFSSYLAWYQQKPGQAPRLLIYDASNRATGIPARFSGSGSGTDFTLTISSLEPEDFAVYYCQQRNNWPPEWTFGQGTKVEIK
EC50 (SARS-CoV-2 RBD): 2.23 ng/mL | EC50 (SARS-CoV RBD): > 1000 ng/mL

B3: C027 (antibody, V domains shown)
VH: EVQLVESGGGVVQPGRSLRLSCAASGFTFSSYGMHWVRQAPGKGLEWVAVISYDGSNKYYADSVKGRFTISRDNSKNTLYLQMNSLRAEDTAVYYCAKASGIYCSGGDCYSYYFDYWGQGTLVTVSS
VL: not shown
EC50 (SARS-CoV-2 RBD): 2.65 ng/mL | EC50 (SARS-CoV RBD): 696 ng/mL

B4: C003 (antibody, V domains shown)
VH: EVQLVESGGGLIQPGGSLRLSCAASGFTVSSNYMSWVRQAPGKGLEWVSVIYSGGSTYYADSVKGRFTISRDNSKNTLYLQMNSLRAGDTAVYYCARDYGDFYFDYWGQGTLVTVSS
VL: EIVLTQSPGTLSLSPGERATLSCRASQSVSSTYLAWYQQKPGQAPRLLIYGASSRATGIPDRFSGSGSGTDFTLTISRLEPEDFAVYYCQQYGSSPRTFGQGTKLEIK
EC50 (SARS-CoV-2 RBD): 6.37 ng/mL | EC50 (SARS-CoV RBD): > 1000 ng/mL

B5: C002 (antibody, V domains shown)
VH: EVQLVESGGGVVQPGRSLRLSCAASGFTFSIYGMHWVRQAPGKGLEWVAVISYDGSNKYYADSVKGRFTISRDNSKNTLYLQMNSLRAEDTAVYYCAKEGRPSDIVVVVAFDYWGQGTLVTVSS
VL: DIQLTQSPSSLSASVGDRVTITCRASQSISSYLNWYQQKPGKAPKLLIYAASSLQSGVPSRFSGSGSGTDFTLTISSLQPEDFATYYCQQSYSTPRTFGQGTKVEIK
EC50 (SARS-CoV-2 RBD): 3.14 ng/mL | EC50 (SARS-CoV RBD): > 1000 ng/mL

B6: C156 (antibody, V domains shown)
VH: QVQLVESGGGVVQPGRSLRLSCAASGFTFSNYGMHWVRQAPGKGLEWVAVISYDGNNKYYADSVKGRFTISRDNSKNTLYLQMNSLRAEDTAVYYCAKDPFPLAVAGTGYFDYWGQGTLVTVSS
VL: SYELTQPPSVSVAPGQTARISCGGNNIGSKNVHWYQQKPGQAPVLVVYDDSDRPSGIPERFSGSNSGNTATLTISRVEAGDEADYYCQVWDSSSDPWVFGGGTKLTVL
EC50 (SARS-CoV-2 RBD): 3.32 ng/mL | EC50 (SARS-CoV RBD): > 1000 ng/mL

B7: C115 (antibody, V domains shown)
VH: QVQLVESGGGLIKPGRSLRLSCTASGFTFGDYAMTWFRQAPGKGLEWVGFIRSKAYGGTTGYAASVKYRFTISRDDSKSIAYLQMDSLKTEDTAVYYCTRWDGWSQHDYWGQGTLVTVSS
VL: DIVMTQSPLSLSVTPGEPASISCRSSQSLLHSNGNNYFDWYLQKPGQSPQLLIYLGSNRASGVPDRFSGSGSGTDFTLKISRVEAEDVGVYYCMQVLQIPYTFGQGTKLEIK
EC50 (SARS-CoV-2 RBD): 3.4 ng/mL | EC50 (SARS-CoV RBD): > 1000 ng/mL

B8: C207 (antibody, V domains shown)
VH: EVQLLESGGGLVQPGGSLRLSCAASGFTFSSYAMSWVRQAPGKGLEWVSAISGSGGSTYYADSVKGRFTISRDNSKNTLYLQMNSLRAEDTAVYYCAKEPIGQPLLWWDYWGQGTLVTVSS
VL: EIVLTQSPATLSLSPGERATLSCRASQSVSSYLAWYQQKPGQAPRLLIYDASNRATGIPARFSGSGSGTDFTLTISSLEPEDFAVYYCQQRSNWPRGFGQGTKVEIK
EC50 (SARS-CoV-2 RBD): 1.87 ng/mL | EC50 (SARS-CoV RBD): > 1000 ng/mL

B9: C165 (antibody, V domains shown)
VH: QVQLVQSGAEVKKPGSSVKVSCKASGGTFSSYAINWVRQAPGQGLEWMGRIIPIVGIANYAQKFQGRVTITADKSSSTAYMELSSLRSEDTAVYYCARDLLDPQLDDAFDIWGQGTMVTVSS
VL: not shown
EC50 (SARS-CoV-2 RBD): 4.25 ng/mL | EC50 (SARS-CoV RBD): > 1000 ng/mL

B10: C029 (antibody, V domains shown)
VH: QVQLQESGPGLVKPSQTLSLTCTVSGGSISSGGYYWSWIRQHPGKGLEWIGYIYYSGSTYYNPSLKSRVTISVDTSKNQFSLKLSSVTAADTAVYYCARTMYYYDSSGSFDYWGQGTLVTVSS
VL: not shown
EC50 (SARS-CoV-2 RBD): 4.13 ng/mL | EC50 (SARS-CoV RBD): > 1000 ng/mL

B11: C132 (antibody, V domains shown)
VH: QVQLQESGPGLVKPSGTLSLTCAVSGGSISSNNWWSCVRQPPGKGLEWIGEIYHSGSTNYNPSLKSRVTISVDKSKNQFSLKLSSVTAADTAVYYCARGGDTAMGPEYFDYWGQGTLVTVSS
VL: QSALTQPASVSGSPGQSITISCTGTSSDVGGYNYVSWYQQHPGKAPKLMIYDVSNRPSGVSNRFSGSKSGNTASLTISGLQAEDEADYYCSSYTSSSTLLFGGGTKLTVL
EC50 (SARS-CoV-2 RBD): 2.92 ng/mL | EC50 (SARS-CoV RBD): > 1000 ng/mL

B12: C108 (antibody, V domains shown)
VH: QVQLQESGPGLVKPSGTLSLTCAVSGGSISSTNWWSWVRQPPGKGLEWIGEIYHTGSTNYNPSLKSRVTISVDKSKNQFSLKLSSVTAADTAVYYCVRDGGRPGDAFDIWGQGTMVTVSS
VL: QSALTQPASVSGSPGQSITISCTGTSSDVGGYNYVSWYQQHPGKAPKLMIYDVSNRPSGVSNRFSGSKSGNTASLTISGLQAEDEADYYCNSYTSSSTRVFGTGTKVTVL
EC50 (SARS-CoV-2 RBD): 5.32 ng/mL | EC50 (SARS-CoV RBD): > 1000 ng/mL

B13: C145 (antibody, V domains shown)
VH: EVQLVESGGGLIQPGGSLRLSCAASGFSVSSNYMSWVRQAPGKGLEWVSVIYSGGSTYYADSVKGRFTISRDNSKNTLYLQMNSLRAEDTAVYYCAREGEVEGYYDFWSGYSRDRYYFDYWGQGTLVTVSS
VL: QSALTQPASVSGSPGQSITISCTGTSSDVGGYNYVSWYQQHPGKAPKLMIYDVSNRPSGVSNRFSGSKSGNTASLTISGLQAEDEADYYCSSYTSSTTRVFGTGTRVTVL
EC50 (SARS-CoV-2 RBD): 3.86 ng/mL | EC50 (SARS-CoV RBD): > 1000 ng/mL

B14: C126 (antibody, V domains shown)
VH: QVQLQESGPGLVKPSETLSLSCAVSGGSIGSYFWSWIRQPPGKGLEWIGYLHYSGSTNYNPSLKSRVTISVDTSKNQFSLKLSSVTAADTAVYYCARLQWLRGAFDIWGQGTMVTVSS
VL: NFMLTQPHSVSESPGKTVTISCTGSSGSIASNYVQWYQQRPGSAPTTVINEDNQRPSGVPDRFSGSIDSSSNSASLTISGLKTEDEADYYCQSYDSSNLVFGGGTKLTVL
EC50 (SARS-CoV-2 RBD): 4.78 ng/mL | EC50 (SARS-CoV RBD): > 1000 ng/mL

B15: C133 (antibody, V domains shown)
VH: QVQLVESGGGVVQPGRSLRLSCAASGFTFSSYAMHWVRQAPGKGLEWVAVILYDGSNKYYADSVKGRFTISRDNSKNTLYLQMNSLRAEDTAVYYCARDSDVDTSMVTWFDYWGQGTLVTVSS
VL: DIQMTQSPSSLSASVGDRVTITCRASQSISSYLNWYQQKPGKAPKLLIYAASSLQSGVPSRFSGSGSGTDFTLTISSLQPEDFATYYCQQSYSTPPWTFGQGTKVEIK
EC50 (SARS-CoV-2 RBD): 1.98 ng/mL | EC50 (SARS-CoV RBD): > 1000 ng/mL

B16: C105 (antibody, V domains shown)
VH: QVQLVESGGGLIQPGGSLRLSCAASGFTVSSNYMSWVRQAPGKGLEWVSVIYSGGSTYYADSVKGRFTISRDNSKNTLYLQMNSLRAEDTAVYYCARGEGWELPYDYWGQGTLVTVSS
VL: QSALTQPPSASGSPGQSVTISCTGTSSDVGGYKYVSWYQQHPGKAPKLMIYEVSKRPSGVPDRFSGSKSGNTASLTVSGLQAEDEADYYCSSYEGSNNFVVFGGGTKLTVL
EC50 (SARS-CoV-2 RBD): 5.2 ng/mL | EC50 (SARS-CoV RBD): > 1000 ng/mL

B17: C131 (antibody, V domains shown)
VH: QVQLVQSGSEVKKPGSSVKVSCKASGGTFSSYAFSWVRQAPGQGLEWMGRIIPILALANYAQKFQGRVTITADKSTSTAYMELSSLRSEDTAVYYCARVNQAVTTPFSMDVWGQGTTVTVSS
VL: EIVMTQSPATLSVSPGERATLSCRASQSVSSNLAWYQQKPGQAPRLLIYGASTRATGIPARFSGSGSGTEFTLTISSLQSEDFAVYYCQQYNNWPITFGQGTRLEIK
EC50 (SARS-CoV-2 RBD): 1.67 ng/mL | EC50 (SARS-CoV RBD): > 1000 ng/mL
